Results as given in article doi:10.1101/2025.10.27.684804.

Target: peptide containing the APP12 polyproline motif and a N-terminal TAMRA label
Experiment: fluorescence polarisation

naive fusion of bmTyr and Fyn-SH3 linked by a short glycine/serine linker (from UniProt P06241 84-141) (enzyme)
Kd: < 2000 nM
